Reference: article doi:10.1101/2021.08.20.457142

B1: MKK6 D-site peptide / p38-alpha (MAPK14) L195A, full length (parent complex)
chain 1: SQSKGKKRNPGLKIPKEAFEQP
chain 2: MSQERPTFYRQELNKTVWEVPERYQNLSPVGSGAYGSVCAAFDTKTGHRVAVKKLSRPFQSIIHAKRTYRELRLLKHMKHENVIGLLDVFTPARSLEEFNDVYLVTHLMGADLNNIVKCQKLTDDHVQFLIYQILRGLKYIHSADIIHRDLKPSNLAVNEDCELKILDFGLARHTDDEMTGYVATRWYRAPEIMANWMHYNQTVDIWSVGCIMAELLTGRTLFPGTDHIDQLKLILRLVGTPGAELLKKISSESARNYIQSLAQMPKMNFANVFIGANPLAVDLLEKMLVLDSDKRITAAQALAHAYFAQYHDPDDEPVAEPYDQSFESRDFLIDEWKSLTYDEVISFVPPPLDQEEMES

Variants of: B1

First: chain 1 SQAKAKKRNPGLKIPKEAFEQP [chain 1 S3A, chain 1 G5A]
Second: chain 1 SQSKGKKRNIGLKIPKEAFEQP [chain 1 P10I]
The screen value of the first is higher: 2.03 Z-score of the enrichment rate within one screen of 711 sequences for the first, 0.802 Z-score of the enrichment rate within one screen of 711 sequences for the second.

Going from chain 1 SQSKGKKRNKGLKIPKEAFEQP [chain 1 P10K] to chain 1 SQSKGKKRNNGLKIPKEAFEQP [chain 1 P10N], the screen value falls from 0.591 Z-score of the enrichment rate within one screen of 711 sequences to 0.284 Z-score of the enrichment rate within one screen of 711 sequences.

Compared with chain 1 SQSKGKKRNEGLKIPKEAFEQP [chain 1 P10E], chain 1 SQSKGKKRNRGLKIPKEAFEQP [chain 1 P10R] is higher in screen value: -0.594 Z-score of the enrichment rate within one screen of 711 sequences for the first, 1.04 Z-score of the enrichment rate within one screen of 711 sequences for the second.

Compared with chain 1 SQSKGKKRNHGLKIPKEAFEQP [chain 1 P10H], chain 1 SQSKGKKRNQGLKIPKEAFEQP [chain 1 P10Q] is lower in screen value: 1.57 Z-score of the enrichment rate within one screen of 711 sequences for the first, 0.417 Z-score of the enrichment rate within one screen of 711 sequences for the second.

First: chain 1 SQSKGGKRNPGLKIPKEAFEQP [chain 1 K6G]
Second: chain 1 SQSKGQKRNPGLKIPKEAFEQP [chain 1 K6Q]
The screen value of the first is higher: 0.521 Z-score of the enrichment rate within one screen of 711 sequences for the first, 0.371 Z-score of the enrichment rate within one screen of 711 sequences for the second.

Compared with chain 1 SQSKGCKRNPGLKIPKEAFEQP [chain 1 K6C], chain 1 SQSKGYKRNPGLKIPKEAFEQP [chain 1 K6Y] is lower in screen value: 0.831 Z-score of the enrichment rate within one screen of 711 sequences for the first, 0.469 Z-score of the enrichment rate within one screen of 711 sequences for the second.

Compared with chain 1 SQSKGMKRNPGLKIPKEAFEQP [chain 1 K6M], chain 1 SQSKGWKRNPGLKIPKEAFEQP [chain 1 K6W] is lower in screen value: 1.22 Z-score of the enrichment rate within one screen of 711 sequences for the first, 0.936 Z-score of the enrichment rate within one screen of 711 sequences for the second.

Compared with chain 1 SQAKGKKANPGLKIPKEAFEQP [chain 1 S3A, chain 1 R8A], chain 1 SQSKGAKRNPGLKIAKEAFEQP [chain 1 K6A, chain 1 P15A] is higher in screen value: -0.296 Z-score of the enrichment rate within one screen of 711 sequences for the first, 1.01 Z-score of the enrichment rate within one screen of 711 sequences for the second.

Going from chain 1 SQSKAKKRNPGLKIPAEAFEQP [chain 1 G5A, chain 1 K16A] to chain 1 SQSKGKKRNPGLKAPAEAFEQP [chain 1 I14A, chain 1 K16A], the screen value falls from 0.905 Z-score of the enrichment rate within one screen of 711 sequences to -0.243 Z-score of the enrichment rate within one screen of 711 sequences.

First: chain 1 SQSKGKKRNAGAKIPKEAFEQP [chain 1 P10A, chain 1 L12A]
Second: chain 1 SQSKGKKRMPGLKIPKEAFEQP [chain 1 N9M]
The screen value of the first is lower: -0.884 Z-score of the enrichment rate within one screen of 711 sequences for the first, 1.1 Z-score of the enrichment rate within one screen of 711 sequences for the second.

Compared with chain 1 SQSKGKKRRPGLKIPKEAFEQP [chain 1 N9R], chain 1 SQSKGKKRQPGLKIPKEAFEQP [chain 1 N9Q] is lower in screen value: 2.08 Z-score of the enrichment rate within one screen of 711 sequences for the first, 0.874 Z-score of the enrichment rate within one screen of 711 sequences for the second.

Going from chain 1 SQSKGKKRWPGLKIPKEAFEQP [chain 1 N9W] to chain 1 SQSKGKKRIPGLKIPKEAFEQP [chain 1 N9I], the screen value falls from 1.99 Z-score of the enrichment rate within one screen of 711 sequences to 0.56 Z-score of the enrichment rate within one screen of 711 sequences.

First: chain 1 SQSAGKKRNAGLKIPKEAFEQP [chain 1 K4A, chain 1 P10A]
Second: chain 1 SQSKAKKANPGLKIPKEAFEQP [chain 1 G5A, chain 1 R8A]
The screen value of the first is higher: -0.0905 Z-score of the enrichment rate within one screen of 711 sequences for the first, -0.162 Z-score of the enrichment rate within one screen of 711 sequences for the second.

Compared with chain 1 SQSKGKKRNPWLKIPKEAFEQP [chain 1 G11W], chain 1 SQSKGKKRNPTLKIPKEAFEQP [chain 1 G11T] is higher in screen value: 0.816 Z-score of the enrichment rate within one screen of 711 sequences for the first, 1.22 Z-score of the enrichment rate within one screen of 711 sequences for the second.

Compared with chain 1 SQSKGKKRNPELKIPKEAFEQP [chain 1 G11E], chain 1 SQSKGKKRNPILKIPKEAFEQP [chain 1 G11I] is higher in screen value: 0.286 Z-score of the enrichment rate within one screen of 711 sequences for the first, 0.58 Z-score of the enrichment rate within one screen of 711 sequences for the second.

Going from chain 1 SQSKAKKRNPGAKIPKEAFEQP [chain 1 G5A, chain 1 L12A] to chain 1 SQSKGKAANPGLKIPKEAFEQP [chain 1 K7A, chain 1 R8A], the screen value falls from -0.353 Z-score of the enrichment rate within one screen of 711 sequences to -0.694 Z-score of the enrichment rate within one screen of 711 sequences.

First: chain 1 SQSAGKKRNPGLKIAKEAFEQP [chain 1 K4A, chain 1 P15A]
Second: chain 1 SQSKGKKRNPGAKIAKEAFEQP [chain 1 L12A, chain 1 P15A]
The screen value of the first is higher: 1.47 Z-score of the enrichment rate within one screen of 711 sequences for the first, -0.373 Z-score of the enrichment rate within one screen of 711 sequences for the second.

Going from chain 1 SQSAGKKRNPGLAIPKEAFEQP [chain 1 K4A, chain 1 K13A] to chain 1 SQSKGKKRNPGLKIPFEAFEQP [chain 1 K16F], the screen value rises from -0.724 Z-score of the enrichment rate within one screen of 711 sequences to 0.506 Z-score of the enrichment rate within one screen of 711 sequences.

First: chain 1 SQSKGKKRNPGLKIPVEAFEQP [chain 1 K16V]
Second: chain 1 SQSKGKKRNPGLKIPREAFEQP [chain 1 K16R]
The screen value of the first is lower: 0.706 Z-score of the enrichment rate within one screen of 711 sequences for the first, 1.75 Z-score of the enrichment rate within one screen of 711 sequences for the second.

First: chain 1 SQSKGKKRNPGLKIPYEAFEQP [chain 1 K16Y]
Second: chain 1 SQSKGKKRNPGLKIPHEAFEQP [chain 1 K16H]
The screen value of the first is lower: -0.107 Z-score of the enrichment rate within one screen of 711 sequences for the first, 0.315 Z-score of the enrichment rate within one screen of 711 sequences for the second.

Compared with chain 1 SQSKGKKRNPGLKIPSEAFEQP [chain 1 K16S], chain 1 SQSKGKKRAPGAKIPKEAFEQP [chain 1 N9A, chain 1 L12A] is lower in screen value: 0.134 Z-score of the enrichment rate within one screen of 711 sequences for the first, -0.96 Z-score of the enrichment rate within one screen of 711 sequences for the second.

First: chain 1 SQSKAAKRNPGLKIPKEAFEQP [chain 1 G5A, chain 1 K6A]
Second: chain 1 SQSKGKRRNPGLKIPKEAFEQP [chain 1 K7R]
The screen value of the first is lower: 1.13 Z-score of the enrichment rate within one screen of 711 sequences for the first, 2.22 Z-score of the enrichment rate within one screen of 711 sequences for the second.

Going from chain 1 SQSKGKPRNPGLKIPKEAFEQP [chain 1 K7P] to chain 1 SQSKGKYRNPGLKIPKEAFEQP [chain 1 K7Y], the screen value rises from 0.368 Z-score of the enrichment rate within one screen of 711 sequences to 0.574 Z-score of the enrichment rate within one screen of 711 sequences.

First: chain 1 SQSKGKNRNPGLKIPKEAFEQP [chain 1 K7N]
Second: chain 1 SQSKGKIRNPGLKIPKEAFEQP [chain 1 K7I]
The screen value of the first is higher: 1.02 Z-score of the enrichment rate within one screen of 711 sequences for the first, 0.69 Z-score of the enrichment rate within one screen of 711 sequences for the second.

First: chain 1 SQSKGKKRNPGQKIPKEAFEQP [chain 1 L12Q]
Second: chain 1 SQSKGKKRNPGYKIPKEAFEQP [chain 1 L12Y]
The screen value of the first is lower: -1.19 Z-score of the enrichment rate within one screen of 711 sequences for the first, -1.09 Z-score of the enrichment rate within one screen of 711 sequences for the second.
